Measured values from the nanobody polyreactivity screen of Harvey et al. (2022).

Experiment: yeast display, Sf9 membrane polyspecificity reagent, FACS + sequencing; frameworks hold sequencing errors
In short: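 After 36–48 hours of galactose induction, yeast (Saccharomyces cerevisiae BJ5465) displaying a synthetic nanobody library were stained at 4 °C for 1 hour with 10% biotinylated, detergent-solubilized Sf9 membrane reagent. Streptavidin microbeads enriched the stained cells before FACS sorting into low and high (top ~1%) gates on anti-HA and streptavidin fluorescence. Each clone's polyreactivity label reflects its gate of origin.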

Row | Sequence | polyreactivity (PSR sort gate)
1 | QVQLVESGGGLVQAGGSLRLSCAASGRTFRYYVMGWYRQAPGKERELVAAITYSGGGTYYADSVKGRFTISRDNAKNTVYLQMNSLKPEDTAVYYCAAARTYQYDKYYYWGQGTQVTVSS | high polyreactivity
2 | QVQLVESGGGLVQAGGSLRLSCAASGRTFSAYAMGWYRQAPGKERELVAAISRSGGRTYYADSVKGRFTISRDNAKNTVYLEMNSLKPEDTAVYYCNARNLRDNQCTYDYWGQGTQVTVSS | high polyreactivity
3 | QVQLVESGGGLVQAGGSLRLSCAASGRTFSAYAMGWYRQAPGKERELVAAITLSVGSTYYADSVKGRFTISRDNAKNTVYLQMNSLKPEDTAVYYCNKYKKGEGGITIVRFDYWGQGTQVTVSS | low polyreactivity
4 | QVQLVESGGGLVQAGGSLRLSCAASGRTFSAYAMGWYRQAPGKERELVARITSVDSTNYADSVKGRFTISRDNAKNTVYLQMNSLKPEDTAVYYCNATFGYPCVDYDDYWGQGTQGTVSS | low polyreactivity
5 | QVQLVESGGGLVQAGGSLRLSCAASGRTFSAYARGWYRQAPGKERELVAAISRRGGSTYYADSVKGRFTISRDNAKNTVYLQMNSLKPEDTAVYYCAADVYKQYGYYYWGQGTLVTVSS | high polyreactivity
6 | QVQLVESGGGLVQAGGSLRLSCAASGRTFSAYTMGWYRQAPGKERELVAAISRRGGSTYYADSVKGRFTISRDNAKNTVYLQMNSLKPEDTAVYYCATKSQYDYDYWGHGTQVTVSS | high polyreactivity
7 | QVQLVESGGGLVQAGGSLRLSCAASGRTFSEYAMGWYRQAPGKERELVAAITRSGGGTYYADSVKGRFTISRDNAKNTVYLQMNSLKPEDTAVYYCATQSFSPYDYTDEYWGQGTQVTVSS | high polyreactivity
8 | QVQLVESGGGLVQAGGSLRLSCAASGRTFSFYAMGWYRPAPGKERELVAAISSGTRTYYADSVKGRFTISRDNAKNTFYLQMNSLKPEDTAVYYCAARPKWTASWYYYWGQGTQVTVSS | high polyreactivity
9 | QVQLVESGGGLVQAGGSLRLSCAASGRTFSGYAMGWYRQAPGKEREFVAVITYSGGSTYYADSVKGRFTMSRVNAKNTVYLQMNSLKPEDTAVYYCNADYVIFYQLVDFDYWGQGTQVTVSS | low polyreactivity
10 | QVQLVESGGGLVQAGGSLRLSCAASGRTFSINAMGWYSQAPGKERELVAAISYTGGSTYYADSVKGRFTISRDNAKNTVYLQMNSLKPEDTAVYYCAASSSRTYYGRYYYWGQGTQVTVSS | high polyreactivity
11 | QVQLVESGGGLVQAGGSLRLSCAASGRTFSIYAMGWYRQAPGKERELVAAISNGGRTKYADSVKGRFTISRDNAKNTVYLQMNSLKPEDTAVYYCAASRPRPPSSRRMDYWGQGTQVTVSS | high polyreactivity
12 | QVQLVESGGGLVQAGGSLRLSCAASGRTFSIYTMGWYRQAPGKERELVASIRRSSGSTYYADSVKGRFTISRDNAKNTVYLQMNSLKPEDTAVYYCAADRIRLDSRKFDYWGQGTQVTVSS | low polyreactivity
13 | QVQLVESGGGLVQAGGSLRLSCAASGRTFSKYVMGWYRQAPGKERELVATITSGGSTYYADSVKGRFTISRDNAKNTVYLQMNSLKPEDTAVYYCAARIWYYNYWGQGTQVTVSS | high polyreactivity
14 | QVQLVESGGGLVQAGGSLRLSCAASGRTFSLNAMGWYRPAPGKEREFVAAISSTGGSTYYADSVKGRFTISRDNAKNTVYLQMNSLKPEDTAVYYCAKRSVYRTAQGRYSVAYDYWGQGTQVTVSS | high polyreactivity
15 | QVQLVESGGGLVQAGGSLRLSCAASGRTFSNYAMGGYRQAPGKERELVAAISERGGSTYYADSVKGRFTISRDNPKNSVFVQLNSLKPEDTAVYDCNALFRLRAYAEMDYWGQGTQVTVSS | high polyreactivity
16 | QVQLVESGGGLVQAGGSLRLSCAASGRTFSNYAMGWYRQAPGKERELVAAIRSGVRTYYADSVKGRFTISRDNAKNTVYLQMNSLKPEDTAVYYCAVATGLLYKSHGYWGQGTQVTVSS | low polyreactivity
17 | QVQLVESGGGLVQAGGSLRLSCAASGRTFSNYVMGWSRQAPGKERELVAAITYSGGSTYYADSVKGRFTISRDNAKYTVYLQMNSLKPEDTAVYYCARRWGGSGYYYWGQGTQVTVSS | high polyreactivity
18 | QVQLVESGGGLVQAGGSLRLSCAASGRTFSPYAMGWYRQAPGKERELVAAITSRGASTYYADSVKGRFTISRDNAKNTVYLQMNSLKPEDTAVYYWNSGRTYRRLGDYWGQGTQVTVSS | high polyreactivity
19 | QVQLVESGGGLVQAGGSLRLSCAASGRTFSQYAMGWYRQAPGKERELVAAISWSGDSTYYADSVKGRFTISRDNAKNTVYLQMNSLKPEDTAVYDCAADRRVETPRYDYWGQGTQVTVSS | low polyreactivity
20 | QVQLVESGGGLVQAGGSLRLSCAASGRTFSRNAKGWYRQAPGKERELVAAISWSGGSTYYADSVKGRFTISRDNAKNTVYLQMNSLKPEDTAVYYCAKVLGRTYNYWGQGTQVTVSS | high polyreactivity
21 | QVQLVESGGGLVQAGGSLRLSCAASGRTFSRNAMAWYRQAPGKERELVAAISRRGVSTYYADSVKGRFTISRDNAKNTVYLQMNSLKPDDTAVFYCNTRGTYRYDYWGQGTQVTVSS | low polyreactivity
22 | QVQLVESGGGLVQAGGSLRLSCAASGRTFSRNAMGWYRQAPGKERELVAAITKGGGSTYYADSVKGRFTISRDNAKNTVYLQMNSLKPEDTAVYYCAAYKPSTRRYDYWGQGTQVTVSS | high polyreactivity

Row | Sequence | polyreactivity (PSR sort gate)
23 | QVQLVESGGGLVQAGGSLRLSCAASGRTFSRNAMGWYRQAPGKERELVASISRSGASTYYADSVKGRFTISRDNAKNTVYLQMNSLKPEDTAVYYCNADVYSTYYNYNYWVQGTQVTVSS | high polyreactivity
24 | QVQLVESGGGLVQAGGSLRLSCAASGRTFSRNAMGWYRQAPGNERELLAASSWSGGRTYYADSVKGRFTISRDNAKNTFYLQMNSLKPEDTAVYYCAAGGGTGGSRYDSWGQGTQVTVSS | high polyreactivity
25 | QVQLVESGGGLVQAGGSLRLSCAASGRTFSRYAIGWYRQAPGKERDLVAAITRTGGSTYYADSVKGRFTISRDNAKNTVYLQMNSLKPEDTAVYYCAAAYPGVWYDYNYWGQGTQVTVSS | high polyreactivity
26 | QVQLVESGGGLVQAGGSLRLSCAASGRTFSRYAMGWYRQAPGKERELVAAIRGNSGNTYYADSVKGRFTISRDNAKNTVYLQMNSLKPEDTAVYYCAKPFNIWGQGTQVTVSS | high polyreactivity
27 | QVQLVESGGGLVQAGGSLRLSCAASGRTFSRYTMGWYRQAPGKERELVAAISVNGGTTHYADSVKGRFTISRDNAKNTVYLQMNSLKPEDTAVYYCNARRRVGKYKYDYWGQGTQVTVSS | high polyreactivity
28 | QVQLVESGGGLVQAGGSLRLSCAASGRTFSSNAKGWYRQAPGKERELVASISFRGGRTYYADSVKGRFTISRDNAKNTVYLQMNSLKPEDTAVYYCVSGTIRTGYGYWGQGTQVTVSS | high polyreactivity
29 | QVQLVESGGGLVQAGGSLRLSCAASGRTFSSYAMGWYRQAPGKERELVAAITRTGGRTYYAYSVKGRFTISRDNAKNSVYLQMNSLKPEDTAVYFCAALYIYRTFAALSRYDYWGQGTQVTVSS | high polyreactivity
30 | QVQLVESGGGLVQAGGSLRLSCAASGRTFSSYTMGWYRQAPGKERELVASITNNGGSTYYADSVKGRFTISRDNAKNTVYLQMNSLKPEDTAVYYCAVDSRGKLGISGEYGYWGQGTQVTVSS | low polyreactivity
31 | QVQLVESGGGLVQAGGSLRLSCAASGRTFSVNAMGWYRKAPGKERELVAAISWSTGSTYYADSVKGRFTISRDNAKNTVSLQMNSLKPEDTAVYYCAKLYEYRRSRYRTYGYWGQGTQVTVSS | high polyreactivity
32 | QVQLVESGGGLVQAGGSLRLSCAASGRTFSVNAMGWYRPAPGKERELVAAISSGGGTNYADSVKGRFTISRDNAKNTVYLQMNSLKPEDTAVYYCAARTFGYPSHRQEMEYWGQGTQVTVSS | low polyreactivity
33 | QVQLVESGGGLVQAGGSLRLSCAASGRTFSVNAMGWYRQAPGKERELVAAITSGASTNYADSVKGRFTISRDNAKNTVYLQMNSLKPEDTAVYYCAADYLYHQTSRGKYYSWGQGTQVTVSS | low polyreactivity
34 | QVQLVESGGGLVQAGGSLRLSCAASGRTFSVNAMGWYRQAPGKEREMVAAITSGASTNYADSVKGRFTISRDNAKNTVYLQMNSLKPEDTAVYYCAADATYGHVPAEYDYWGQGTQVTVSS | low polyreactivity
35 | QVQLVESGGGLVQAGGSLRLSCAASGRTFSVNAMGWYRQAPGNERELVAARRTGDSTNYADSVKGRFTFSRDNAKYTVYLPMNSLKPEDTSVDYCAADVWGSSAQRGWRKYYYWGQGTQVTVSS | high polyreactivity
36 | QVQLVESGGGLVQAGGSLRLSCAASGRTFSVYAMVWYRQAPGKERELVADITRRGGSTTYADSVKGRFTISRDNAKNTVDLQMNSLKPEDTAVYYFNADGKAGGDYDYWGQGTQVTVSS | low polyreactivity
37 | QVQLVESGGGLVQAGGSLRLSCAASGRTFSVYTMGWYRQAPGKERELVASINWSGGRTYYADSVKGRFTISRDNAKNSVYLQMNSLKPEDTAVYYCAATGWRTLYDYWGQGTQVTVSS | high polyreactivity
38 | QVQLVESGGGLVQAGGSLRLSCAASGRTFSYNAMGWYRQAPGKERELVAGISSRGGSTYYADSVKGRFTISRDNAKNTVYLQMNSLKPEDTAVYYCNALGRGKDSYSGVDYWGQGTQVTVSS | high polyreactivity
39 | QVQLVESGGGLVQAGGSLRLSCAASGRTFSYNTMGCYRQAPGKERELVARITWGGGSTNYADSVKGRFTISRDNAKNTVYLQMNSLKPEDTAVYYCAREYSSVYWVRHLFYYWGQGTQVTVSS | low polyreactivity
40 | QVQLVESGGGLVQAGGSLRLSCAASGRTFSYNTMGWYRQAPGKVSELVAAISTGVSTYYADSVKGRFTISRDNAKNTVYLQMNSLKPEDTEVYYCARGGRPRWYPPHNYWGQGTQLTVSS | low polyreactivity
41 | QVQLVESGGGLVQAGGSLRLSCAASGRTFSYYAMGCYRQAPGKERELVAAISQRGGSTYYADSVKGRFTISRDNAKNTVYLQMNSLKPEDTAVYYCAVLVSRYRYRVLDDYWGQGTQVTVSS | high polyreactivity
42 | QVQLVESGGGLVQAGGSLRLSCAASGRTFSYYAMGWYRQAPGKERELVAAISSGGSTNYADSVKGRFTISRDNAKNTVYLQMNSLKPEDTAVYYCATSSIWGSGRVRWVTYYYWGQGTQVTVSS | low polyreactivity
43 | QVQLVESGGGLVQAGGSLRLSCAASGRTFSYYAMGWYRQAPGKERELVAGISWRGTSTYADSVKGRFTISRDNAKNTVYLQMNSLKPEDTAVYYWNAEVTGHYSYHKFDYWGQGTQVTVSS | low polyreactivity
